From the supplement of paper PMC11246515
± gives the standard deviation of the averaged measurements.

Experiment: total protein half-life in vivo (active degradation + dilution); higher = more stable protein
[1] = E. coli NCM3722 delta-clpP, growth: N-lim chemostat, doubling time 6 h
[2] = E. coli NCM3722 delta-hslV, growth: N-lim chemostat, doubling time 6 h
[3] = E. coli NCM3722 delta-lon, growth: N-lim chemostat, doubling time 6 h
[4] = E. coli NCM3722 delta-smpB, growth: N-lim chemostat, doubling time 6 h
[5] = wild type E. coli NCM3722, growth: C-lim chemostat, doubling time 3 h
[6] = wild type E. coli NCM3722, growth: C-lim chemostat, doubling time 6 h
[7] = wild type E. coli NCM3722, growth: C-lim chemostat, doubling time 12 h
[8] = wild type E. coli NCM3722, growth: N-lim chemostat, doubling time 6 h
[9] = wild type E. coli NCM3722, growth: N-lim chemostat, doubling time 12 h
[10] = wild type E. coli NCM3722, growth: P-lim chemostat, doubling time 6 h
[11] = wild type E. coli NCM3722, growth: P-lim chemostat, doubling time 12 h
[12] = E. coli NCM3722 delta-clpP delta-lon delta-hslV, growth: N-lim chemostat, doubling time 6 h

Sequence: MSAGRLNKKSLGIVMLLSVGLLLAGCSGSKSSDTGTYSGSVYTVKRGDTLYRISRTTGTSVKELARLNGISPPYTIEVGQKLKLGGAKSSSITRKSTAKSTTKTASVTPSSAVPKSSWPPVGQRCWLWPTTGKVIMPYSTADGGNKGIDISAPRGTPIYAAGAGKVVYVGNQLRGYGNLIMIKHSEDYITAYAHNDTMLVNNGQSVKAGQKIATMGSTDAASVRLHFQIRYRATAIDPLRYLPPQGSKPKC
- total protein half-life in vivo [1]: 6.06 ± 0.3 h
- total protein half-life in vivo [2]: 6.34 ± 0.85 h
- total protein half-life in vivo [3]: 6.04 ± 0.44 h
- total protein half-life in vivo [4]: 5.693 ± 0.011 h
- total protein half-life in vivo [5]: 3.22 ± 0.21 h
- total protein half-life in vivo [6]: 5.4794 ± 0.0017 h
- total protein half-life in vivo [7]: 9.64 ± 0.25 h
- total protein half-life in vivo [8]: 5.64 ± 0.52 h
- total protein half-life in vivo [9]: 10.8 ± 0.38 h
- total protein half-life in vivo [10]: 6.32 ± 0.37 h
- total protein half-life in vivo [11]: 13.3 ± 0.95 h

Sequence: MSAKHPVIAVTGSSGAGTTTTSLAFRKIFAQLNLHAAEVEGDSFHRYTRPEMDMAIRKARDAGRHISYFGPEANDFGLLEQTFIEYGQSGKGKSRKYLHTYDEAVPWNQVPGTFTPWQPLPEPTDVLFYEGLHGGVVTPQHNVAQHVDLLVGVVPIVNLEWIQKLIRDTSERGHSREAVMDSVVRSMEDYINYITPQFSRTHLNFQRVPTVDTSNPFAAKGIPSLDESFVVIHFRNLEGIDFPWLLAMLQGSFISHINTLVVPGGKMGLAMELIMLPLVQRLMEGKKIE [P0AEX5]
- total protein half-life in vivo [12]: 5.45 ± 0.28 h
- total protein half-life in vivo [1]: 5.4 ± 0.23 h
- total protein half-life in vivo [2]: 4.95 ± 0.67 h
- total protein half-life in vivo [3]: 4.68 ± 1.1 h
- total protein half-life in vivo [4]: 5.185 ± 0.032 h
- total protein half-life in vivo [5]: 2.96 ± 0.14 h
- total protein half-life in vivo [6]: 5.5 ± 0.22 h
- total protein half-life in vivo [7]: 11.8 ± 3.6 h
- total protein half-life in vivo [8]: 5.42 ± 0.28 h
- total protein half-life in vivo [9]: 10.9 ± 2.4 h
- total protein half-life in vivo [10]: 6.156 ± 0.01 h
- total protein half-life in vivo [11]: 12.4 ± 2.5 h

Sequence: MSALFLAIPLTIFVLFVLPIWLWLHYSNRSGRSELSQSEQQRLAQLADEAKRMRERIQALESILDAEHPNWRDR [P0AFM9]
- total protein half-life in vivo [12]: 6.51 ± 0.1 h
- total protein half-life in vivo [1]: 6.06 h
- total protein half-life in vivo [2]: 6.22 ± 0.43 h
- total protein half-life in vivo [3]: 5.01 ± 1.7 h
- total protein half-life in vivo [4]: 6.04 ± 0.43 h
- total protein half-life in vivo [5]: 2.84 ± 0.24 h
- total protein half-life in vivo [6]: 5.55 ± 1.4 h
- total protein half-life in vivo [7]: 13.4 ± 2.2 h
- total protein half-life in vivo [8]: 6.02 ± 0.28 h
- total protein half-life in vivo [10]: 4.5 ± 1.6 h
- total protein half-life in vivo [11]: 12.1 ± 0.9 h

Sequence: MSALNKKSFLTYLKEGGIYVVLLVLLAIIIFQDPTFLSLLNLSNILTQSSVRIIIALGVAGLIVTQGTDLSAGRQVGLAAVVAATLLQSMDNANKVFPEMATMPIALVILIVCAIGAVIGLINGLIIAYLNVTPFITTLGTMIIVYGINSLYYDFVGASPISGFDSGFSTFAQGFVALGSFRLSYITFYALIAVAFVWVLWNKTRFGKNIFAIGGNPEAAKVSGVNVGLNLLMIYALSGVFYAFGGMLEAGRIGSATNNLGFMYELDAIAACVVGGVSFSGGVGTVIGVVTGVIIFTVINYGLTYIGVNPYWQYIIKGAIIIFAVALDSLKYARKK
- total protein half-life in vivo [12]: 3.21 h
- total protein half-life in vivo [1]: 6.19 h
- total protein half-life in vivo [2]: 6.83 ± 0.54 h
- total protein half-life in vivo [3]: 6.18 h
- total protein half-life in vivo [4]: 6.18 ± 0.67 h
- total protein half-life in vivo [5]: 3.05 ± 0.18 h
- total protein half-life in vivo [7]: 12 ± 0.2 h
- total protein half-life in vivo [10]: 5.49 ± 1.3 h

Sequence: MSALNSLPLPVVRLLAFFHEELSERRPGRVPQTVQLWVGCLLVILISMTFEIPFVALSLAVLFYGIQSNAFYTKFVAILFVVATVLEIGSLFLIYKWSYGEPLIRLIIAGPILMGCMFLMRTHRLGLVFFAVAIVAIYGQTFPAMLDYPEVVVRLTLWCIVVGLYPTLLMTLIGVLWFPSRAISQMHQALNDRLDDAISHLTDSLAPLPETRIEREALALQKLNVFCLADDANWRTQNAWWQSCVATVTYIYSTLNRYDPTSFADSQAIIEFRQKLASEINKLQHAVAEGQCWQSDWRISESEAMAARECNLENICQTLLQLGQMDPNTPPTPAAKPPSMAADAFTNPDYMRYAVKTLLACLICYTFYSGVDWEGIHTCMLTCVIVANPNVGSSYQKMVLRFGGAFCGAILALLFTLLVMPWLDNIVELLFVLAPIFLLGAWIATSSERSSYIGTQMVVTFALATLENVFGPVYDLVEIRDRALGIIIGTVVSAVIYTFVWPESEARTLPQKLAGTLGMLSKVMRIPRQQEVTALRTYLQIRIGLHAAFNACEEMCQRVALERQLDSEERALLIERSQTVIRQGRDLLHAWDATWNSAQALDNALQPDRAGQFADALEKYAAGLATALSRSPQITLEETPASQAILPTLLKQEQHVCQLFARLPDWTAPALTPATEQAQGATQ
- total protein half-life in vivo [12]: 5.28 h
- total protein half-life in vivo [1]: > 8 h
- total protein half-life in vivo [5]: 0.524 h

Sequence: MSANENNLIWIDLEMTGLDPERDRIIEIATLVTDANLNILAEGPTIAVHQSDEQLALMDDWNVRTHTASGLVERVKASTMGDREAELATLEFLKQWVPAGKSPICGNSIGQDRRFLFKYMPELEAYFHYRYLDVSTLKELARRWKPEILDGFTKQGTHQAMDDIRESVAELAYYREHFIKL [P0A784]
- total protein half-life in vivo [1]: 4.86 ± 0.7 h
- total protein half-life in vivo [2]: 4.688 ± 0.041 h
- total protein half-life in vivo [3]: 6.132 ± 0.0019 h
- total protein half-life in vivo [4]: 4.64 ± 0.34 h
- total protein half-life in vivo [5]: 3.41 ± 0.36 h
- total protein half-life in vivo [7]: 13 ± 1.9 h
- total protein half-life in vivo [8]: 4.65 ± 0.63 h
- total protein half-life in vivo [9]: 8.25 ± 0.81 h
- total protein half-life in vivo [10]: 5.87 ± 0.32 h
- total protein half-life in vivo [11]: 13.6 ± 0.93 h

Sequence: MSASALVCLAPGSEETEAVTTIDLLVRGGIKVTTASVASDGNLAITCSRGVKLLADAPLVEVADGEYDVIVLPGGIKGAECFRDSTLLVETVKQFHRSGRIVAAICAAPATVLVPHDIFPIGNMTGFPTLKDKIPAEQWLDKRVVWDARVKLLTSQGPGTAIDFGLKIIDLLVGREKAHEVASQLVMAAGIYNYYE
- total protein half-life in vivo [12]: 5.064 ± 0.047 h
- total protein half-life in vivo [2]: 5.39 ± 1.1 h
- total protein half-life in vivo [3]: 4.534 ± 0.022 h
- total protein half-life in vivo [4]: 4.23 ± 0.24 h
- total protein half-life in vivo [5]: 2.69 ± 0.31 h
- total protein half-life in vivo [6]: 5.15 ± 0.32 h
- total protein half-life in vivo [7]: 9.53 ± 0.47 h
- total protein half-life in vivo [8]: 4.21 ± 0.22 h
- total protein half-life in vivo [9]: 7.09 ± 0.18 h
- total protein half-life in vivo [10]: 5.81 ± 0.065 h
